Laboratory results as given in patent publication US20040014638A1 (RIGEL PHARMACEUTICALS, published 2004).
Ends that are not written are not given here.

T1: human CLLD8 protein (human, UniProt Q96T68 1-719, limits assumed)
T1 sequence: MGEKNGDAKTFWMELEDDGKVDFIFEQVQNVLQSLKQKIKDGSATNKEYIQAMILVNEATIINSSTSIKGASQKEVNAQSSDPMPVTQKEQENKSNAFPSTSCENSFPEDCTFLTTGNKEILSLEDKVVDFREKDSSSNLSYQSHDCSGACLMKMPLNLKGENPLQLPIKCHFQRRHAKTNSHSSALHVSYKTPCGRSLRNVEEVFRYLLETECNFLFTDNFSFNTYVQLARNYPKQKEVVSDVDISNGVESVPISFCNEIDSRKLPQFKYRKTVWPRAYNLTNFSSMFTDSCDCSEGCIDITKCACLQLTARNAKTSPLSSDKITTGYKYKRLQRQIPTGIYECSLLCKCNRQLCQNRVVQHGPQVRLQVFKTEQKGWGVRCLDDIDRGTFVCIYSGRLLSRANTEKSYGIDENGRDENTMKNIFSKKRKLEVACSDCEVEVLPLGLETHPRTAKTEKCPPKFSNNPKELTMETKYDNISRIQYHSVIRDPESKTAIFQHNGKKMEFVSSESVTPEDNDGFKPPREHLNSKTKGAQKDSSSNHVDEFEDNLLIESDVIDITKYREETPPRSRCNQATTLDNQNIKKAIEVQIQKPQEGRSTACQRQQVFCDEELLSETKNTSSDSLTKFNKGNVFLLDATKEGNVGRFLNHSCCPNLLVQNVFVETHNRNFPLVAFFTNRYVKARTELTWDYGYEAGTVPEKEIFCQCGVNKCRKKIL


What was measured:
[1] = biological target: T1, human CLLD8 protein; experiment: cell-based or functional assay
[2] = biological target: T1, human CLLD8 protein; experiment: cell-based or functional assay; remark: listed apart in the source

| Binder | endogenous ε inhibition ratio (TAQMAN quantitative PCR of ε transcription product, +IL-4/+Dox to +IL-4/-Dox) [1] | reporter ratio (original clone screen, +IL-4/+Dox over +IL-4/-Dox GFP fluorescence) [1] | reporter ratio (GFP under germline ε promoter, A5T4 reporter line) [2] |
| --- | --- | --- | --- |
| AMHGHHGWPWGMEQGCTPLG (also: expressed as BFP-peptide fusion via alpha-helical linker, bait in pGBKT7) [peptide CL02A3 wt] | 2.82 | 1.55 | 1.62 |
| RAHGHHGWPWGMEQGCTPLG [peptide CL02A3AM] | – | – | 1.03 |
| AMHGHHAAPWGMEQGCTPLG [peptide CL02A3GW] | – | – | 1.16 |
| AMHGHHGWPWGMEQGCTPAA [peptide CL02A3LG] | – | – | 1.99 |
